B1: Tumor necrosis factor ligand superfamily member 15 (Homo sapiens), O95150-1 (parent)
chain: MAEDLGLSFGETASVEMLPEHGSCRPKARSSSARWALTCCLVLLPFLAGLTTYLLVSQLRAQGEACVQFQALKGQEFAPSHQQVYAPLRADGDKPRAHLTVVRQTPTQHFKNQFPALHWEHELGLAFTKNRMNYTNKFLLIPESGDYFIYSQVTFRGMTSECSEIRQAGRPNKPDSITVVITKVTDSYPEPTQLLMGTKSVCEVGSNWFQPIYLGAMFSLQEGDKLMVNVSDISLVDYTKEDKTFFGAFLL
partner: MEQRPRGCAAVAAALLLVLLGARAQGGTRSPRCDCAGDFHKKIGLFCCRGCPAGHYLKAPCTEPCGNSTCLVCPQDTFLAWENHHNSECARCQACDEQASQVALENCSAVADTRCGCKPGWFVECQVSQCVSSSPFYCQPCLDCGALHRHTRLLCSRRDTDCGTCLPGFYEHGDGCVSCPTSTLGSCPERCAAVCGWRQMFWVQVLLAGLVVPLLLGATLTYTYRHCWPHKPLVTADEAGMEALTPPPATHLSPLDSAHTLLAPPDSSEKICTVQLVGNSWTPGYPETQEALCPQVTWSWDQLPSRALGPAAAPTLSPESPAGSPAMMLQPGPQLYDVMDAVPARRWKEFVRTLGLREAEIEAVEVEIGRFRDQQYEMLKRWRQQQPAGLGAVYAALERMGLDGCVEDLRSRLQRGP
B2: Tumor necrosis factor receptor superfamily member 6B (Homo sapiens), O95407 (parent)
chain: MRALEGPGLSLLCLVLALPALLPVPAVRGVAETPTYPWRDAETGERLVCAQCPPGTFVQRPCRRDSPTTCGPCPPRHYTQFWNYLERCRYCNVLCGEREEEARACHATHNRACRCRTGFFAHAGFCLEHASCPPGAGVIAPGTPSQNTQCQPCPPGTFSASSSSSEQCQPHRNCTALGLALNVPGSSSHDTLCTSCTGFPLSTRVPGAEECERAVIDFVAFQDISIKRLQRLLQALEAPEGWGPTPRAGRAALQLKLRRRLTELLGAQDGALLVRLLQALRVARMPGLERSVRERFLPVH
B3: Tumor necrosis factor receptor superfamily member 6B (Homo sapiens), O95407 (parent)
chain: B2 chain
partner: B1 chain

Variants of: B1
Settings: with TNFRSF25, Q93038-1

| Variant | effect of a mutation on the interaction |
| --- | --- |
| C162S;S187A;E190A;C202S | disrupting interaction |

Variants of: B2
Settings: with TNFSF14, O43557-1
TNFSF14, O43557-1, sequence (O43557 whole entry): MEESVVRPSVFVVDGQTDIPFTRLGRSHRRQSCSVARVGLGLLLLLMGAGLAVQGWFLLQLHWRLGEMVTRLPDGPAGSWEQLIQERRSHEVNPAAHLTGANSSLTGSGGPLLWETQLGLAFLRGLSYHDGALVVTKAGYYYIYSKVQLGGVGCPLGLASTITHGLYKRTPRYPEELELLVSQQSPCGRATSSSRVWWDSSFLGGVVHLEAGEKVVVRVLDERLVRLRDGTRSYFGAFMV

| Variant | effect of a mutation on the interaction |
| --- | --- |
| L85A;R89A | decreasing interaction |

Variants of: B2
Settings: with tnfl6_human FASLG

| Variant | effect of a mutation on the interaction |
| --- | --- |
| L85A;R89A | disrupting interaction |

Variants of: B3
Settings: with TNFSF15, O95150-1

| Variant | effect of a mutation on the interaction |
| --- | --- |
| L85A;R89A | decreasing interaction |
